From US20180155451A1 (published 2018)
Residue numbers refer to the chain shown, from its start. Names and notes keep the numbering of the source.

T1: FcgRIIaR (human, UniProt P12318 34-217)
T1 construct: extracellular domain; Soluble extracellular domain with C-terminal His tag; also called FcγRIIa R; FcγRIIa type R; not shown: His tag attached to the C terminus
T1 sequence (looked up): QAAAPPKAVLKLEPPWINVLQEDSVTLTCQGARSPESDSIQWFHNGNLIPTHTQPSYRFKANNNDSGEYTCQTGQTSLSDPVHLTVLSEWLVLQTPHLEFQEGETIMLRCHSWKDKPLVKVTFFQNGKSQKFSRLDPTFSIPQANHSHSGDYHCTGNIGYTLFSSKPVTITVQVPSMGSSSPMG

T2: FcgRIIaH (human, UniProt P12318 34-217)
T2 construct: extracellular domain; Soluble extracellular domain with C-terminal His tag; also called FcγRIIa H; FcγRIIa type H; not shown: His tag attached to the C terminus
T2 sequence (looked up): T1 sequence (looked up) with R134H

T3: FcgRIIb (human, UniProt P31994 43-217)
T3 construct: extracellular domain; Soluble extracellular domain with C-terminal His tag; also called FcγRIIb; CD32B; not shown: His tag attached to the C terminus
T3 sequence (looked up): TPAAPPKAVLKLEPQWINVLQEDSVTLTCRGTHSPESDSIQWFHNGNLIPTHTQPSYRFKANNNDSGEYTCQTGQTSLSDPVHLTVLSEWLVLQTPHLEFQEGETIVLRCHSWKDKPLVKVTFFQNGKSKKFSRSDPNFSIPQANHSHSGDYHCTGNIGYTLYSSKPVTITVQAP

B1: H240-Kn120/H240-Hl170/L73-k0 (antibody, human IgG1, kappa)
heavy 1: QDQLVQSGAEVKKPGASVKVSCKASGFNIKDTYIQWVRQAPGQGLEWMGRIDPLRKQTKYREKFEGRVTITADTSTNTAYMELSSLRSEDTAVYYCVRSGREFDYWGQGTLVTVSSASTKGPSVFPLAPSSKSTSGGTAALGCLVKDYFPEPVTVSWNSGALTSGVHTFPAVLQSSGLYSLSSVVTVPSSSLGTQTYICNVNHKPSNTKVDKKVEPKSCDKTHTCPPCPAPEYYWGPMVFLFPPKPKDTLMISRTPEVTCVVVDVSDEDPEVKFNWYVDGVEVHNAKTKPREEQYNATYRVVSVLTVLHQDWLNGKEYKCKVSNKDLPAPIEKTISKAKGQPREPQVCTLPPSRDELTKNQVSLWCLVKGFYPSDIAVEWESNGQPENNYKTTPPVLDSDGSFFLYSKLTVDKSRWQQGNVFSCSVMHEALHNHYTQKSLSLSP
heavy 2: QDQLVQSGAEVKKPGASVKVSCKASGFNIKDTYIQWVRQAPGQGLEWMGRIDPLRKQTKYREKFEGRVTITADTSTNTAYMELSSLRSEDTAVYYCVRSGREFDYWGQGTLVTVSSASTKGPSVFPLAPSSKSTSGGTAALGCLVKDYFPEPVTVSWNSGALTSGVHTFPAVLQSSGLYSLSSVVTVPSSSLGTQTYICNVNHKPSNTKVDKKVEPKSCDKTHTCPPCPAPELLGGPSVFLFPPKPKDTLMISRTPEVTCVVVDVSHEEPEVKFNWYVDGVEVHNAKTKPREEQYNSTYRVVSVLTVLHQDWLNGKEYKCKVSNDAAPKPIEETISKAKGQPREPQVYTLPPSRCELTKNQVSLSCAVKGFYPSDIAVEWESNGQPENNYKTTPPVLDSDGSFFLVSKLTVDKSRWQQGNVFSCSVMHEALHNHYTQKSLSLSP
light: DIQMTQSPSSLSASVGDRVTITCRASQDIHKYIAWYQQKPGQAPRLLIQYTSTLQPGVPSRFSGSGSGTDYTFTISSLQPEDIATYYCLQYEQLRTFGGGTKVEIKRTVAAPSVFIFPPSDEQLKSGTASVVCLLNNFYPREAKVQWKVDNALQSGNSQESVTEQDSKDSTYSLSSTLTLSKADYEKHKVYACEVTHQGLSSPVTKSFNRGEC
notes: Heterodimerized anti-epiregulin IgG1 antibody; L328A introduced into H240-Hl068; also called H240-Kn120/H240-HI170/L73-k0
B2: H240-Kn120/H240-Hl174/L73-k0 (antibody, human IgG1, kappa)
heavy 1: B1 heavy 1
heavy 2: B1 heavy 2 with A327L, I331E
light: B1 light
notes: Heterodimerized anti-epiregulin IgG1 antibody; I332E introduced into H240-Hl068; also called H240-Kn120/H240-HI174/L73-k0
B3: H240-Kn173/H240-Hl068/L73-k0 (antibody, human IgG1, kappa)
heavy 1: B1 heavy 1 with I331Q
heavy 2: B1 heavy 2 with A327L
light: B1 light
notes: Heterodimerized anti-epiregulin IgG1 antibody; I332Q introduced into H240-Kn120; also called H240-Kn173/H240-HI068/L73-k0
B4: H240-Kn149/H240-Hl068/L73-k0 (antibody, human IgG1, kappa)
heavy 1: B1 heavy 1 with L327W, K333L
heavy 2: B1 heavy 2 with A327L
light: B1 light
notes: Heterodimerized anti-epiregulin IgG1 antibody; L328W and K334L introduced into H240-Kn120; also called H240-Kn149/H240-HI068/L73-k0
B5: H240-Kn166/H240-Hl170/L73-k0 (antibody, human IgG1, kappa)
heavy 1: B1 heavy 1 with L327A
heavy 2: B1 heavy 2
light: B1 light
notes: Anti-epiregulin IgG1 antibody; L328A introduced into both H chains of H240-Kn120/H240-Hl068/L73-k0; also called H240-Kn166/H240-HI170/L73-k0
B6: H240-Kn138/H240-Hl147/L73-k0 (antibody, human IgG1, kappa)
heavy 1: B1 heavy 1 with L327W
heavy 2: B1 heavy 2 with A327W
light: B1 light
notes: Anti-epiregulin IgG1 antibody; L328W introduced into both H chains of H240-Kn120/H240-Hl068/L73-k0; also called H240-Kn138/H240-HI147/L73-k0
B7: H240-Kn138/H240-Hl068/L73-k0 (antibody, human IgG1, kappa)
heavy 1: B1 heavy 1 with L327W
heavy 2: B1 heavy 2 with A327L
light: B1 light
notes: Heterodimerized anti-epiregulin IgG1 antibody; L328W introduced into H240-Kn120; also called H240-Kn138/H240-HI068/L73-k0
B8: H240-Kn120/H240-Hl182/L73-k0 (antibody, human IgG1, kappa)
heavy 1: B1 heavy 1
heavy 2: B1 heavy 2 with A230H, A327L
light: B1 light
notes: Heterodimerized anti-epiregulin IgG1 antibody; A231H introduced into H240-Hl068; also called H240-Kn120/H240-HI182/L73-k0
B9: H240-Kn172/H240-Hl177/L73-k0 (antibody, human IgG1, kappa)
heavy 1: B1 heavy 1 with I331M
heavy 2: B1 heavy 2 with A327L, I331Q
light: B1 light
notes: Heterodimerized anti-epiregulin IgG1 antibody; I332M introduced into H240-Kn120 and I332Q into H240-Hl068; also called H240-Kn172/H240-HI177/L73-k0

Biological target: T4, FcgRIa (human, UniProt P12314 16-292)
T4 construct: extracellular domain; Soluble extracellular domain with C-terminal His tag, expressed in FreeStyle293 cells; also called FcγRIa; FcγRI; not shown: His tag attached to the C terminus
T4 sequence (P12314 16-292): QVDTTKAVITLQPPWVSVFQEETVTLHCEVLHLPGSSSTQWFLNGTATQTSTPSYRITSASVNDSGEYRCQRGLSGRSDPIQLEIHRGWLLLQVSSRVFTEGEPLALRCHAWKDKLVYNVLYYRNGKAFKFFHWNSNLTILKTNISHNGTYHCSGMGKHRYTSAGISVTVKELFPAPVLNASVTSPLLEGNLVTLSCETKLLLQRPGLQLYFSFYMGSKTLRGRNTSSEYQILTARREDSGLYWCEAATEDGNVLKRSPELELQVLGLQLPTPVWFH
Assay: SPR (Biacore), antibody captured, FcgR as analyte
Procedure: (§1) Analysis of interaction between obj ective antibody and the FcγR was carried out using Biacore T100 (GE Healthcare), Biacore T200, Biacore A100, and Biacore 4000. HBS-EP+ (GE Healthcare) was used as the running buffer, and the measurement temperature was set to 25° C. Chips produced by immobilizing the antigen peptide by the amine coupling method to a Series S sensor Chip CM5 (GE Healthcare), chips produced by allowing preliminarily biotinylated antigen peptides to interact with and immobilize onto a Series S Sensor Chip SA (certified) (GE Healthcare), chips produced by immobilizing Protein L (ACTIGEN, BioVision) to Series S Sencor Chip CM5 (GE Healthcare), or chips produced by immobilizing Protein A/G (Thermo Scientific) to Series S Sencor Chip CM5 (GE Healthcare) were used. Antibodies of interest were captured onto these chips, and allowed to interact to each FcγR diluted with running buffer. To regenerate and repeatedly use the chip, the antibodies captured onto the chip were washed off by reacting 10 mM glycine-HCl, pH 1.5.

Kd | Binder
0.19 nM | B1
0.14 nM | B2
0.12 nM | B3
0.38 nM | B4
0.066 nM | B5
0.31 nM | B6
0.16 nM | B7
0.18 nM | B8
0.25 nM | B9

Biological target: T1, FcgRIIaR
Assay: SPR (Biacore), antibody captured, FcgR as analyte
Procedure: as §1

Kd | Binder
8.6 nM | B1
30 nM | B2
40 nM | B3
19 nM | B4
31 nM | B5
11 nM | B6
19 nM | B7
40 nM | B8
29 nM | B9

Biological target: T2, FcgRIIaH
Assay: SPR (Biacore), antibody captured, FcgR as analyte
Procedure: as §1

Kd | Binder
18 nM | B1
55 nM | B2
57 nM | B3
26 nM | B4
22 nM | B5
130 nM | B6
25 nM | B7
77 nM | B8
57 nM | B9

Biological target: T3, FcgRIIb
Assay: SPR (Biacore), antibody captured, FcgR as analyte
Procedure: as §1

Kd | Binder
67 nM | B1
130 nM | B2
280 nM | B3
150 nM | B4
200 nM | B5
110 nM | B6
130 nM | B7
240 nM | B8
160 nM | B9

Biological target: T5, FcgRIIIaF (human, UniProt P08637 17-208)
T5 construct: extracellular domain; Soluble extracellular domain with C-terminal His tag; polymorphic site made after J. Clin. Invest; also called FcγRIIIa F; not shown: His tag attached to the C terminus
T5 sequence (P08637 17-208): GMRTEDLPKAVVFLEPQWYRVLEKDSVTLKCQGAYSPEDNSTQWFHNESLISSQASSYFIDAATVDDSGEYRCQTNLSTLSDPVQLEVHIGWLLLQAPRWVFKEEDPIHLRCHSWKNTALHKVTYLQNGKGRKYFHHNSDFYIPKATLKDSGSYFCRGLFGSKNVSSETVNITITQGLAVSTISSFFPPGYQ
Assay: SPR (Biacore), antibody captured, FcgR as analyte
Procedure: as §1

Kd | Binder
3.9 nM | B1
0.51 nM | B2
1.8 nM | B3
1.5 nM | B4
4.2 nM | B5
22 nM | B6
3.7 nM | B7
3.1 nM | B8
2 nM | B9

Biological target: T6, FcgRIIIaV (human, UniProt P08637 17-208)
T6 construct: extracellular domain; Soluble extracellular domain with C-terminal His tag; polymorphic site made after J. Clin. Invest; also called FcγRIIIa V; not shown: His tag attached to the C terminus
T6 sequence (P08637 17-208 F176V limits assumed): as the sequence (P08637 17-208) above, with F160V counted along it
Assay: SPR (Biacore), antibody captured, FcgR as analyte
Procedure: as §1

Kd | Binder
0.93 nM | B1
0.036 nM | B2
0.4 nM | B3
0.32 nM | B4
1 nM | B5
16 nM | B6
0.43 nM | B7
0.29 nM | B8
0.22 nM | B9

Biological target: T4, FcgRIa
Assay: SPR (Biacore); KD of H240-Kn120/H240-Hl068/L73-k0 divided by KD of this antibody
Procedure: (§2) Analysis of interaction between obj ective antibody and the FcγR was carried out using Biacore T100 (GE Healthcare), Biacore T200, Biacore A100, and Biacore 4000.

Relative KD | Binder
0.8 | B1
1.1 | B2
1.3 | B3
0.4 | B4
2.4 | B5
0.5 | B6
1 | B7
0.9 | B8
0.6 | B9

Biological target: T1, FcgRIIaR
Assay: as above
Procedure: as §2

Relative KD | Binder
2.3 | B1
0.7 | B2
0.5 | B3
1.1 | B4
0.6 | B5
1.8 | B6
1.1 | B7
0.5 | B8
0.7 | B9

Biological target: T2, FcgRIIaH
Assay: as above
Procedure: as §2

Relative KD | Binder
2.3 | B1
0.7 | B2
0.7 | B3
1.6 | B4
1.9 | B5
0.3 | B6
1.6 | B7
0.5 | B8
0.7 | B9

Biological target: T3, FcgRIIb
Assay: as above
Procedure: as §2

Relative KD | Binder
2.2 | B1
1.2 | B2
0.5 | B3
1 | B4
0.8 | B5
1.4 | B6
1.2 | B7
0.6 | B8
0.9 | B9

Biological target: T5, FcgRIIIaF
Assay: as above
Procedure: as §2

Relative KD | Binder
0.6 | B1
4.3 | B2
1.2 | B3
1.5 | B4
0.5 | B5
0.1 | B6
0.6 | B7
0.7 | B8
1.1 | B9

Biological target: T6, FcgRIIIaV
Assay: as above
Procedure: as §2

Relative KD | Binder
0.4 | B1
10 | B2
0.9 | B3
1.1 | B4
0.4 | B5
0 | B6
0.8 | B7
1.2 | B8
1.6 | B9
